How the values were obtained:
Assay in all cases: ELISA
Settings in all cases: both partners purified
[1] = target: pertussis toxin (PTx) holotoxin, native (Bordetella pertussis, strain  …, UniProt P04977;P04978;P04979;P0A3R5;P04981)
PTx B oligomer [2] = target: T1, PTx B oligomer (Bordetella pertussis, strain  …, UniProt P04978;P04979;P0A3R5;P04981)
[3] = target: pertussis toxin (native PTx holotoxin) (Bordetella pertussis, strain  …, UniProt P04977;P04978;P04979;P0A3R5;P04981)
[4] = target: PTx S1-220 (soluble, truncated recombinant S1 subunit) (Bordetella pertussis, strain  …, UniProt P04977)
PTx B oligomer [5] = target: T1, PTx B oligomer; remark: listed apart in the source

Binder | EC50 [1] [nM] | binding result (PTx B oligomer [2]) | EC50 [3] [nM] | further results
biotinylated antibody E12, recombinant human IgG1 (antibody, V domains shown) VH: EVQLVESGGDLVQPGGSLRLSCEASGFTFSNYAMSWVRQAPGKGLEWVSGTSGSGGSTYYADSVKGRFTLSRDNSKNTLYLQMNSLRAEDTAVYYCAKDREVLRFFLLPYYFDSWGQGTLVTVSS VL: DIVMTQSPGSLSLSPGERATLSCRASQSVSSDYVAWYQQKPGQAPRLLIFDASTRATGIPDRFSGSGSGTDFTLTIGRLEPEDFAVYYCQQYGNSPLTFGGGAKVEIK | 0.56 |  |  | 
antibody E12 (antibody, V domains shown) VH: EVQLVESGGDLVQPGGSLRLSCEASGFTFSNYAMSWVRQAPGKGLEWVSGTSGSGGSTYYADSVKGRFTLSRDNSKNTLYLQMNSLRAEDTAVYYCAKDREVLRFFLLPYYFDSWGQGTLVTVSS VL: DIVMTQSPGSLSLSPGERATLSCRASQSVSSDYVAWYQQKPGQAPRLLIFDASTRATGIPDRFSGSGSGTDFTLTIGRLEPEDFAVYYCQQYGNSPLTFGGGAKVEIK |  | no binding | 0.13 | EC50 [4]: 0.05 nM
biotinylated antibody H5, recombinant human IgG1 (antibody, V domains shown) VH: QVQLVESGPGLVKPSETLSLTCTVSGASVSSGTYYWSWIRQPPGKGLEWIGYSYYTGSSDSNASLKSRVTLSIDTSRNLLSLKLTSVTAADTAVYYCARDRRKVRGVWAGYSGMDVWGPGTTVTVSS VL: EIVMTQSPSSLSASVGDRVTITCQASQEITNYLNWYQQKPGKAPKLLIYDASHLETGVPSRFSGSGSGTDFSFTISSLQPEDIATYYCQQYDDFPWGGVTFGGGTKVEIK | 0.06 |  |  | 
antibody H5 (antibody, V domains shown) VH: QVQLVESGPGLVKPSETLSLTCTVSGASVSSGTYYWSWIRQPPGKGLEWIGYSYYTGSSDSNASLKSRVTLSIDTSRNLLSLKLTSVTAADTAVYYCARDRRKVRGVWAGYSGMDVWGPGTTVTVSS VL: EIVMTQSPSSLSASVGDRVTITCQASQEITNYLNWYQQKPGKAPKLLIYDASHLETGVPSRFSGSGSGTDFSFTISSLQPEDIATYYCQQYDDFPWGGVTFGGGTKVEIK |  |  | 0.02 | EC50 (PTx B oligomer [5]): 0.11 nM
biotinylated antibody A12, recombinant human IgG1 (antibody, V domains shown) VH: QVTLKESGGGLVKPGGSLRLSCAASGFTFTDYYMTWIRQAPGKGLEWVSCVGSSGTYTNYAQNVQGRFTISRDNAKNSLYLQMNSLRTEDTAVYYCARVTGSGNFYGSYHYYYMDVWGKGTMVTVSS VL: EVVLTQSPATLSLSPGKKATLSCRASQSVSNYLAWYQQKPGQSPRLLIFDASKRAAGIPARFSGSGSGTDFTLTISSLEPEDFAVYYCQQRTNWLTFGGGTKVEIK | 0.24 |  |  | 
antibody A12 (antibody, V domains shown) VH: QVTLKESGGGLVKPGGSLRLSCAASGFTFTDYYMTWIRQAPGKGLEWVSCVGSSGTYTNYAQNVQGRFTISRDNAKNSLYLQMNSLRTEDTAVYYCARVTGSGNFYGSYHYYYMDVWGKGTMVTVSS VL: EVVLTQSPATLSLSPGKKATLSCRASQSVSNYLAWYQQKPGQSPRLLIFDASKRAAGIPARFSGSGSGTDFTLTISSLEPEDFAVYYCQQRTNWLTFGGGTKVEIK |  | no binding | 0.1 | 
biotinylated antibody A8, recombinant human IgG1 (antibody, V domains shown) VH: QVQLVESGAEVKKPGASVKVSCKTSGYTFSSYGITWVRQAPGQGLEWMGWISAYNGDTNYADSVKGRVTMTTDTSTSTAYMELRSLRFDDTAVYYCARDTSFAPSGYGFDISGQGTTVTVSS VL: DIQLTQSPSSLSASVGDRVTITCRASQGIRHELAWYQQKPGKAPQRLIYAASSLQSGVPSRFSGSGSGTDFTLTINSLQPEDSATYYCLQVNSYPRTFGQGTRVDIK | 0.65 |  |  | 
antibody A8 (antibody, V domains shown) VH: QVQLVESGAEVKKPGASVKVSCKTSGYTFSSYGITWVRQAPGQGLEWMGWISAYNGDTNYADSVKGRVTMTTDTSTSTAYMELRSLRFDDTAVYYCARDTSFAPSGYGFDISGQGTTVTVSS VL: DIQLTQSPSSLSASVGDRVTITCRASQGIRHELAWYQQKPGKAPQRLIYAASSLQSGVPSRFSGSGSGTDFTLTINSLQPEDSATYYCLQVNSYPRTFGQGTRVDIK |  | no binding | 0.15 | EC50 [4]: 0.02 nM
biotinylated antibody D8, recombinant human IgG1 (antibody, V domains shown) VH: QITLRESGAEVTKPGSSVKVSCKASGGTFGSYGIRWVRQAPGQGLEWMGGIIPMFGTANYAQRFQGRVTITADKSTSTAYMELSSLKSEDTAVYYCARENSIVGANWFDPWGQGTLVTVSS VL: EIVMTQSPSSLSASVGDRVTFTCRASQSISTYLNWYQQKPGKAPTLLIYAASTLRSGVPSRFSGSGSGTDFTLTISSLQPVDFATYFCQQSYSSPYTFGQGTTLEIK | 0.76 |  |  | 
antibody D8 (antibody, V domains shown) VH: QITLRESGAEVTKPGSSVKVSCKASGGTFGSYGIRWVRQAPGQGLEWMGGIIPMFGTANYAQRFQGRVTITADKSTSTAYMELSSLKSEDTAVYYCARENSIVGANWFDPWGQGTLVTVSS VL: EIVMTQSPSSLSASVGDRVTFTCRASQSISTYLNWYQQKPGKAPTLLIYAASTLRSGVPSRFSGSGSGTDFTLTISSLQPVDFATYFCQQSYSSPYTFGQGTTLEIK |  |  | 0.14 | EC50 (PTx B oligomer [5]): 0.78 nM

Reference: article PMC5964521 (Infection and Immunity, 2018)
